# Patent publication US20170247677A1
# Assays:
# Factor Va = Factor Va (UniProt P12259)
# FXa^V17S (human) = FXa^V17S (human) (UniProt P00742); test: cell-based or functional assay
# FXa^V17T (human) = FXa^V17T (human) (UniProt P00742); test: cell-based or functional assay
# [1] = target: wild-type Factor Xa (human) (UniProt P00742); test: cell-based or functional assay
# FXa^V17M (human) = FXa^V17M (human) (UniProt P00742); test: cell-based or functional assay
# FXa^I16T (human) = FXa^I16T (human) (UniProt P00742); test: cell-based or functional assay
# FXa^I16M (human) = FXa^I16M (human) (UniProt P00742); test: cell-based or functional assay
# UniProt P12259, sequence (P12259 29-2224): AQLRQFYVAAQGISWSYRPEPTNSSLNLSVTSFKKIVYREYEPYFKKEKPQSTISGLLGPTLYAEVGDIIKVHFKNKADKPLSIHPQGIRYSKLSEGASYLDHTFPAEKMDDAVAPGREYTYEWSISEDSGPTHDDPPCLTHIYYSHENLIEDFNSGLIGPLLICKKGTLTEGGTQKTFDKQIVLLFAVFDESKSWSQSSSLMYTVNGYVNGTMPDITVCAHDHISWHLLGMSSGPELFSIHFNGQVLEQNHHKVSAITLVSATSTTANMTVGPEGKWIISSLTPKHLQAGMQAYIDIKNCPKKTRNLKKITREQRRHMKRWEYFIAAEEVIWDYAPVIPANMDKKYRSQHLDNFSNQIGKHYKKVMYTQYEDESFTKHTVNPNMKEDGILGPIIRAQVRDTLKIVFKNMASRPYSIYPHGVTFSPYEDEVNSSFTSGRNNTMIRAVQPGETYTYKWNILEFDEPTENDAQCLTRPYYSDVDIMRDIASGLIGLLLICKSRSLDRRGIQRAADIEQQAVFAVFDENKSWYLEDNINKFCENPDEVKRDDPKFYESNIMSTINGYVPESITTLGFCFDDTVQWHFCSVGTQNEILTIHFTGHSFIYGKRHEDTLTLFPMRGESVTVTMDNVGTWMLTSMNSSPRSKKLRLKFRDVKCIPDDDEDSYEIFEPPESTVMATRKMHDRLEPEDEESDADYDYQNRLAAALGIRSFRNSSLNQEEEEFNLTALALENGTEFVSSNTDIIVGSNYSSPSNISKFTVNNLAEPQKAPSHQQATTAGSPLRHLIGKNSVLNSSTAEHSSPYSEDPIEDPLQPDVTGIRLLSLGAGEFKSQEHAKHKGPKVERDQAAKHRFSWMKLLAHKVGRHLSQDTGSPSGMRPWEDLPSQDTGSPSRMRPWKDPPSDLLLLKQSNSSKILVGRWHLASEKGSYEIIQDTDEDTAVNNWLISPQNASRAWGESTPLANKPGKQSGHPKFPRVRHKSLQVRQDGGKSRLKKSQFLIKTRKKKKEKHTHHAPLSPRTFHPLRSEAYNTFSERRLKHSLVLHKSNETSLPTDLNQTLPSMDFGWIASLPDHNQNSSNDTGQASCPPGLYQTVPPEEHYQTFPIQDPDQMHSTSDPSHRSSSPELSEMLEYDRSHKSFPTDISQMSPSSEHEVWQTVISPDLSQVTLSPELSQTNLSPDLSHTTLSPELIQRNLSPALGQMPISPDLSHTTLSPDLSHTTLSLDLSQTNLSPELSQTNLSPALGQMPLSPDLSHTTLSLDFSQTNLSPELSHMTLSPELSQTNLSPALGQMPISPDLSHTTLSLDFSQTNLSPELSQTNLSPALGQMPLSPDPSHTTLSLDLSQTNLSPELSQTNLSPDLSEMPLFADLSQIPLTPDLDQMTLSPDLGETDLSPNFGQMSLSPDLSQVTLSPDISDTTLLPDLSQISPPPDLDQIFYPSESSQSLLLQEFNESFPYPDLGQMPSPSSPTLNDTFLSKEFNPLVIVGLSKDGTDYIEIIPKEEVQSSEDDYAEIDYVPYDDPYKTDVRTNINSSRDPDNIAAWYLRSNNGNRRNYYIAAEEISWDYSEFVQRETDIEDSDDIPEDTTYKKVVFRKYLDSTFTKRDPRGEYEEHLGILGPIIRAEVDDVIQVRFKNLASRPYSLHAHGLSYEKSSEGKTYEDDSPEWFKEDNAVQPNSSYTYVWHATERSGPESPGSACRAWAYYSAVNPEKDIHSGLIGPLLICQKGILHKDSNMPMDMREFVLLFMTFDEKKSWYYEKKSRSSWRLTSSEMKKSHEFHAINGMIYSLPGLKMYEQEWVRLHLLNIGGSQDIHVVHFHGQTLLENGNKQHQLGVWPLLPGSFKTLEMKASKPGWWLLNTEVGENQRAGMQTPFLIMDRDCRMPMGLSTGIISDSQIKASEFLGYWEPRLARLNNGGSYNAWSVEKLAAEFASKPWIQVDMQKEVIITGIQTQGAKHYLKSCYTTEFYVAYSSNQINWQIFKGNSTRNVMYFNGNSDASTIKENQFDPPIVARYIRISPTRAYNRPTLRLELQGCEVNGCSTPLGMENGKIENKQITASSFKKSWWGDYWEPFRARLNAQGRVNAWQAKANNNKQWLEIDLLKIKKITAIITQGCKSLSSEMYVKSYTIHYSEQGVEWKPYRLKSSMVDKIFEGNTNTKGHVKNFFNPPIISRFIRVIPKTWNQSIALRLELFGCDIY
substance,measurement,setting,value
FXa^I16L,kinetics of prothrombin activation in the presence of FVa and anionic membranes (PCPS),Factor Va,demonstrated faster than wild-type kinetics
FXa^I16M,kinetics of prothrombin activation in the presence of FVa and anionic membranes (PCPS),Factor Va,displayed similar to wild-type kinetics
FXa^V17M,kinetics of prothrombin activation in the presence of FVa and anionic membranes (PCPS),Factor Va,demonstrated faster than wild-type kinetics
antithrombin III (from UniProt P01008 33-464),"Fold Difference (rate constant for inhibition by antithrombin, against wtFXa)",FXa^V17S (human),> 100 fold
same,"Fold Difference (rate constant for inhibition by antithrombin, against wtFXa)",FXa^V17T (human),70 fold
same,"Fold Difference (rate constant for inhibition by antithrombin, against wtFXa)",[1],1 fold
same,"Fold Difference (rate constant for inhibition by antithrombin, against wtFXa)",FXa^V17M (human),14 fold
same,"Fold Difference (rate constant for inhibition by antithrombin, against wtFXa)",FXa^I16T (human),> 100 fold
same,"Fold Difference (rate constant for inhibition by antithrombin, against wtFXa)",FXa^I16M (human),40 fold
